Measured values published in patent publication US20190112365A1 (EISAI R AND D MANAGEMENT, published 2019).
Substitutions are numbered along the chain they refer to. Values joined by “and” are separate entries in the source; they are usually repeats but may differ in a detail not shown here. Identical values can stand only once.

B1: recombinant ms7G6, mouse IgG2b (antibody, V domains shown)
VH: QVQLLQPGAELVKPGASVIMSCKASGYTFTTYWITWVKQRPGQGLEWIGDIYPGSSICNYNEKFKSKATLTVDTSSSTAYMQLNSLTSEDSAVYYCAREDGYDAWFAYWGQGTLVTVSA
VL: DVLMTQTPLSLPVSLGDQASISCRSSQSILHSNGNTYLEWYLQKPGQSPKLLICKVSNRFSGVPDRFSGSGSGTDFTLKISRVEAEDLGVYYCFQGSHVPFTFGSGTKLEIK
notes: Recombinant material, mouse IgG2b
B2: recombinant ms7G6, mouse IgG2a (antibody, V domains shown)
VH: B1 VH
VL: B1 VL
notes: Recombinant material, mouse IgG2a
B3: 7G6-HCzu17-LCzu12 (antibody, human IgG1, kappa, V domains shown)
VH: EVQLLESGGGLVQPGGSLRLSCAASGYTFTTYWITWVRQAPGKGLEWVSDIYPGSSICNYNEKFKSRFTISVDNSKNTLYLQMNSLRAEDTAVYYCAREDGYDAWFAYWGQGTLVTVSS
VL: DVQMTQSPSSLSASVGDRVTITCRSSQSILHSNGNTYLEWYQQKPGKAPKLLICKVSNRFSGVPSRFSGSGSGTDFTLTISSLQPEDFATYYCFQGSHVPFTFGQGTKLEIKR
notes: humanized, human IgG1 kappa
B4: 7G6-HCzu12-LCzu13 (antibody, human IgG1, kappa)
heavy: not shown
light: DVQMTQSPSSLSASVGDRVTITCRSSQSILHSNGNTYLEWYQQKPGKAPKLLIYKVSNRFSGVPSRFSGSGSGTDFTLTISSLQPEDFATYYCFQGSHVPFTFGQGTKLEIKRTVAAPSVFIFPPSDEQLKSGTASVVCLLNNFYPREAKVQWKVDNALQSGNSQESVTEQDSKDSTYSLSSTLTLSKADYEKHKVYACEVTHQGLSSPVTKSFNRGEC
notes: humanized, human IgG1 kappa
B5: 7G6-HCzu12-LCzu11 (antibody, human IgG1, kappa)
heavy: not shown
light: B4 light with V2I
notes: humanized, human IgG1 kappa
B6: 7G6-HCzu14-LCzu12 (antibody, human IgG1, kappa, V domains shown)
VH: B3 VH with S49G, N61A, E62D, S66G, N77S, L79A
VL: B3 VL
notes: humanized, human IgG1 kappa
B7: 7G6-HCzu16-LCzu12 (antibody, human IgG1, kappa, V domains shown)
VH: B3 VH with L79A
VL: B3 VL
notes: humanized, human IgG1 kappa
B8: 7G6-HCzu12-LCzu14 (antibody, human IgG1, kappa)
heavy: not shown
light: B4 light with V2I, Y54C
notes: humanized, human IgG1 kappa
B9: 7G6-HCzu12-LCzu16 (antibody, human IgG1, kappa, V domains shown)
VH: B3 VH with S49G, N77S, L79A
VL: B3 VL with L30V, C54S
notes: humanized, human IgG1 kappa
B10: 7G6-HCzu19-LCzu12 (antibody, human IgG1, kappa, V domains shown)
VH: B3 VH with N61A, E62D, S66G, V72R
VL: B3 VL
notes: humanized, human IgG1 kappa
B11: 7G6-HCzu18-LCzu12 (antibody, human IgG1, kappa, V domains shown)
VH: B3 VH with V72R
VL: B3 VL
notes: humanized, human IgG1 kappa
B12: 7G6-HCzu13-LCzu12 (antibody, human IgG1, kappa, V domains shown)
VH: B3 VH with S49G, N61A, E62D, K63S, F64V, S66G, N77S, L79A
VL: B3 VL
notes: humanized, human IgG1 kappa
B13: 7G6-HCzu11-LCzu11 (antibody, human IgG1, kappa, V domains shown)
VH: B3 VH with V72R, R98K
VL: B3 VL with V2I, C54Y
notes: humanized, human IgG1 kappa
B14: 7G6-HCzu12-LCzu15 (antibody, human IgG1, kappa, V domains shown)
VH: B3 VH with S49G, N77S, L79A
VL: B3 VL with C54S
notes: humanized, human IgG1 kappa
B15: 7G6-HCzu12-LCzu12 (antibody, human IgG1, kappa)
heavy: not shown
light: B4 light with Y54C
notes: humanized, human IgG1 kappa
B16: 7G6-HCzu15-LCzu12 (antibody, human IgG1, kappa, V domains shown)
VH: B3 VH with S49G, L79A
VL: B3 VL
notes: humanized, human IgG1 kappa
B17: 7G6-HCzu20-LCzu12 (antibody, human IgG1, kappa, V domains shown)
VH: B3 VH with N61A, E62D, S66G, V72R, R98K
VL: B3 VL
notes: humanized, human IgG1 kappa
B18: 7G6-HCzu7-LCzu6 (antibody, human IgG1, kappa, V domains shown)
VH: QVQLVQSGAEVKKPGASVKVSCKASGYTFTTYWITWVRQAPGQGLEWMGDIYPGSSISNYAQKFQGRVTMTVDTSTSTVYMELSSLRSEDTAVYYCAREDGYDAWFAYWGQGTLVTVSS
VL: DVVMTQSPLSLPVTLGQPASISCRSSQSILHSNGNTYLEWYQQRPGQSPRLLISKVSNRFSGVPDRFSGSGSGTDFTLKISRVEAEDVGVYYCFQGSHVPFTFGQGTKLEIKR
notes: humanized, human IgG1 kappa
B19: 7G6-HCzu9-LCzu6 (antibody, human IgG1, kappa, V domains shown)
VH: B18 VH with S58C
VL: B18 VL
notes: humanized, human IgG1 kappa
B20: 7G6-HCzu10-LCzu6 (antibody, human IgG1, kappa, V domains shown)
VH: B18 VH with S58C, V72R
VL: B18 VL
notes: humanized, human IgG1 kappa

Target: T1, Human Tau 2N4R, wild type, recombinant full length (human, UniProt P10636 2-758)
T1 construct: Full length 2N4R isoform; monomer in SPR and ELISA; heparin-induced aggregates or seeds in the functional assays; also called Tau441; Tau-441
T1 sequence (P10636 other isoform, or with tags, fused parts or gaps limits assumed): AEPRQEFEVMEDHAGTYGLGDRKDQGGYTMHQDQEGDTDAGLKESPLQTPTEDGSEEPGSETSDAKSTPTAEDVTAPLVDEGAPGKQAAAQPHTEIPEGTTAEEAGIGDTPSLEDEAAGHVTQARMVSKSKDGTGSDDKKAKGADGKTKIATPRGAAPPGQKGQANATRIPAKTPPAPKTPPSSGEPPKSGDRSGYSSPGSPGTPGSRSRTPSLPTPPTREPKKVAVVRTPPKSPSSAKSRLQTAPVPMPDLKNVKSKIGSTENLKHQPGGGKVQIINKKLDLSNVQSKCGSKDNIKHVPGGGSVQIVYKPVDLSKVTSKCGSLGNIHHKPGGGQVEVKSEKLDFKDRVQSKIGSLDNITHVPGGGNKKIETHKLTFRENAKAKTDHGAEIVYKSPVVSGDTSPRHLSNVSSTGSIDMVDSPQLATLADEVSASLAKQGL
Test: SPR BIAcore, mAb captured by anti-mouse IgG, Tau flowed, 1:1 Langmuir
Method: (§1) All experiments were performed using a BIAcore™ T-100 instrument (GE Healthcare). 10 μL anti-human IgG (monoclonal mouse anti-human Fc) from human antibody capture kit (GE Healthcare) was diluted to 25 μL/mL in 200 μL final immobilization buffer (10 mM sodium acetate, pH 5.0). The flow rate was set to 5 μL/min, flowpath 1. Fifty μL N-hydroxysuccinamide (NETS) and 50 μL 1-ethyl-3-(3-dimethylaminopropyl) carbidiimide (EDC) were mixed and injected for 420 sec to activate the CM5 chip surface. The diluted antibody was injected for 360 seconds followed by 1 M ethanolamine for 420 seconds. The flowpath was then switched to flowpath 2. A new EDC/NHS mixture was prepared and the procedure was repeated for flow cell 2. The surface was conditioned by 2 injections of 30 sec using flowpath 1, 2 at 30 μL/min of 3M MgCl₂. For the anti-mouse surface, 10 μL anti-mouse IgG (polyclonal rabbit anti-mouse IgG) from mouse antibody capture kit (GE Healthcare) was diluted to 30 μL/mL in 324 μL final immobilization buffer (10 mM sodium acetate, pH 5.0). The flow rate was set to 5 μL/min, flowpath 3. Fifty μL NHS and 50 μL EDC were mixed and injected for 420 sec to activate the chip surface. The diluted antibody was injected for 420 sec. 1 M ethanolamine was injected for 420 sec. Flow path was switched to flowpath 4. A new EDC/NHS mixture was prepared and the procedure was repeated for flow cell 4. The surface was conditioned by 2 injections of 30 sec using flowpath 3, 4 at 30 μL/min of 10 mM glycine, pH 1.7.
(§2) Binding of humanized and mouse antibodies were analyzed by BIAcore™ to determine their relative association rates (ka), dissociation rates (kd), and equilibrium binding constants (KD). Anti-mouse or anti-human antibodies were immobilized on a CM5 chip and sample mAbs were captured on the chip. 2N4R Tau was flowed over the chip and binding observed. The binding constants kₐ, kd, and KD were determined using a 1:1 Langmuir fitting model. Both 7G6-HCzu12-based mAbs had similar kₐ and kd values (Table 8). However, the kₐ of 7G6-HCzu11 was decreased, though the kd was unaffected. Therefore, human residues in the Vh3 framework impact binding to Tau.

Kd | koff | kon | Binder
4.17 nM | 0.00156 s⁻¹ | 373000 M⁻¹ s⁻¹ | B1
2.73 nM | 0.0015 s⁻¹ | 549000 M⁻¹ s⁻¹ | B2

Target: T1, Human Tau 2N4R, wild type, recombinant …
Test: SPR BIAcore, mAb captured by anti-human IgG, Tau flowed, 1:1 Langmuir
Method: as §1, §2

Kd | koff | kon | Binder
0.073 nM | 0.000124 s⁻¹ | 1.7e+06 M⁻¹ s⁻¹ | B3
0.0888 nM | 0.000124 s⁻¹ | 1.4e+06 M⁻¹ s⁻¹ | B4
0.132 nM | 0.000181 s⁻¹ | 1.38e+06 M⁻¹ s⁻¹ | B5
0.133 nM | 0.000194 s⁻¹ | 1.46e+06 M⁻¹ s⁻¹ | B6
0.114 nM | 0.000174 s⁻¹ | 1.53e+06 M⁻¹ s⁻¹ | B7
0.0689 nM | 0.000119 s⁻¹ | 1.73e+06 M⁻¹ s⁻¹ | B8
0.099 nM | 0.000148 s⁻¹ | 1.49e+06 M⁻¹ s⁻¹ | B9
0.121 nM | 0.000152 s⁻¹ | 1.25e+06 M⁻¹ s⁻¹ | B10
0.0815 nM | 0.000128 s⁻¹ | 1.57e+06 M⁻¹ s⁻¹ | B11
0.168 nM | 0.000239 s⁻¹ | 1.42e+06 M⁻¹ s⁻¹ | B12
0.205 nM | 0.000175 s⁻¹ | 853000 M⁻¹ s⁻¹ | B13
0.0959 nM | 0.000141 s⁻¹ | 1.47e+06 M⁻¹ s⁻¹ | B14
0.129 nM and 0.0875 nM | 0.000193 s⁻¹ and 0.000151 s⁻¹ | 1.49e+06 M⁻¹ s⁻¹ and 1.72e+06 M⁻¹ s⁻¹ | B15
0.138 nM | 0.000278 s⁻¹ | 2.02e+06 M⁻¹ s⁻¹ | B16
0.119 nM | 0.000136 s⁻¹ | 1.14e+06 M⁻¹ s⁻¹ | B17

Target: T1, Human Tau 2N4R, wild type, recombinant …
Test: SPR BIAcore, mAb captured by anti-mouse IgG, Tau flowed, 1:1 Langmuir
Remark: another data set of the same source
Method: as §1, §2

Kd | koff | kon | Binder
4.17 nM | 0.00156 s⁻¹ | 373000 M⁻¹ s⁻¹ | B1
2.73 nM | 0.0015 s⁻¹ | 549000 M⁻¹ s⁻¹ | B2

Target: T1, Human Tau 2N4R, wild type, recombinant …
Test: SPR BIAcore, mAb captured by anti-human IgG, Tau flowed, 1:1 Langmuir
Remark: another data set of the same source
Method: as §1
Binding of humanized and mouse antibodies were analyzed by surface plasmon resonance (BIAcore™) to determine their relative association rates (kₐ), dissociation rates (kd), and equilibrium binding constants (KD). Anti-mouse or anti-human antibodies were immobilized on a CM5 chip and sample mAbs were captured on the chip. 2N4R Tau was flowed over the chip and binding observed. The binding constants kₐ, kd, and KD were determined using a 1:1 Langmuir fitting model.

Kd | koff | kon | Binder
0.109 nM | 0.000226 s⁻¹ | 2.08e+06 M⁻¹ s⁻¹ | B18
0.0938 nM | 0.000193 s⁻¹ | 2.06e+06 M⁻¹ s⁻¹ | B19
0.108 nM | 0.000213 s⁻¹ | 1.98e+06 M⁻¹ s⁻¹ | B20
